Reference: publication PMC4813486
“And” between values parts separate entries of the source, which are not always exact repeats. Identical values can stand only once.

Experiments:
[1] = molecular target: full-length β2-microglobulin (UniProt P61769); assay: native MS; ion mobility MS, 15 μM protein, 100 mM ammonium acetate, pH 5
[2] = molecular target: full-length β2-microglobulin (UniProt P61769); assay: cross-linking; BS3-d0/d4 1:1, 25 °C, 1 h; gel electrophoresis (NuPAGE); bands digested in-gel with trypsin; LC-MS/MS
[3] = molecular target: full-length β2-microglobulin (UniProt P61769); assay: native MS; ion mobility MS, 30 μM protein, 100 mM ammonium acetate, pH 5 (data not shown)

full-length β2-microglobulin (from UniProt P61769 21-119) (natural protein)
stoichiometry N [1]: 2
stoichiometry N [2]: 2 and 3 and 4
stoichiometry N [3]: 3 and 4
